Laboratory results taken from paper PMC12238530, “Dynamic SAS-6 phosphorylation aids centrosome duplication and elimination in C. elegans oogenesis” (EMBO Reports, 2025).

Assays:
[1] = target: T1, GST-SAS-6 full-length (FL) (C. elegans, UniProt O62479 1-492); test: pull-down; GST pulldown of purified His-tagged SAS-6 proteins by purified GST-SAS-6 FL or truncations, with or without pre-phosphorylation by CDK1; α-His immunoblot and CBB staining (Fig. 5A, 5C, 5D); details: both partners purified
T1 construct: SAS-6, C. elegans, full length (1-492); pGEX6P1-GST vector; also called full-length SAS-6 coupled to beads; source: E. coli BL21 (DE3), purified (Glutathione Sepharose 4B); not shown: GST, N-terminal, kept
T1 sequence (looked up): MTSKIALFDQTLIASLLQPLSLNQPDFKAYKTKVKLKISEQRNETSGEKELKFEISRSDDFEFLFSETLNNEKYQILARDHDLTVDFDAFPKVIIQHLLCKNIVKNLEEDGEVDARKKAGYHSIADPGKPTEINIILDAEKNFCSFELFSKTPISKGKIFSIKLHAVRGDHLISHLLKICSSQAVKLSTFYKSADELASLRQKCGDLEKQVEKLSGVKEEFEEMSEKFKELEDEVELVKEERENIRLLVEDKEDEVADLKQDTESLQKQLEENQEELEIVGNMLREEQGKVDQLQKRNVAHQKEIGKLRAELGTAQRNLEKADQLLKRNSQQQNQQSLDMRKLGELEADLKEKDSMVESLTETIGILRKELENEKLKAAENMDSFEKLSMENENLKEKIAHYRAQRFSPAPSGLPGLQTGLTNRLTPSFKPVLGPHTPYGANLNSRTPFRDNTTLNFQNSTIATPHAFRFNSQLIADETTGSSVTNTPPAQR

GST-SAS-6(∆N) = target: T2, GST-SAS-6(∆N) (C. elegans, UniProt O62479 171-492); test: bead recruitment assay; GST-SAS-6 FL or truncations coupled to agarose beads; recruitment of mCherry-His tagged SAS-6 C-terminus seen by fluorescence (Fig. 5B, 5E); details: both partners purified
T2 construct: SAS-6, C. elegans, N-terminal head domain deleted (∆1–170), so residues 171-492; also called GST-SAS-6-ΔN; source: E. coli BL21 (DE3), purified (Glutathione Sepharose 4B); not shown: GST, N-terminal, kept
T2 sequence (looked up): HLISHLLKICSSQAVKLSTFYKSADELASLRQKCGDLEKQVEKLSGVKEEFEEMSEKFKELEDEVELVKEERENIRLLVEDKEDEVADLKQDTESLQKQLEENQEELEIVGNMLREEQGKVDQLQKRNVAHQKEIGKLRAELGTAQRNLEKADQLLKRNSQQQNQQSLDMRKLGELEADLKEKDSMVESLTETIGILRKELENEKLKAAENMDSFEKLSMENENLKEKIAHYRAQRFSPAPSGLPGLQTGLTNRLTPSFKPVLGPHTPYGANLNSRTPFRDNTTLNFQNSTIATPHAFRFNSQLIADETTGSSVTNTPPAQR

- binding result [1]: binds
- binding result (GST-SAS-6(∆N)): binds
B1: SAS-6-C-mCherry-His (domain or fragment, C. elegans, UniProt O62479 401-492, looked up)
chain: HYRAQRFSPAPSGLPGLQTGLTNRLTPSFKPVLGPHTPYGANLNSRTPFRDNTTLNFQNSTIATPHAFRFNSQLIADETTGSSVTNTPPAQR
notes: SAS-6, C. elegans, C-terminal unstructured region, residues 401-492; Cloned in pET.28a-mCherry; the primer's vector part encodes LFQGP before the NdeI site, so a further N-terminal tag may be there; also called mCherry-His tagged SAS-6 C-terminus; SAS-6 C-terminus; source: E. coli BL21 (DE3), purified (Ni-NTA); not shown: mCherry, C-terminal, kept; His, C-terminal, kept
